The values below come from article PMC10308326.

pKd: −log10 of the molar value.

Series [1] concerns TALE tetM_1298 (14 bp recognition) (engineered TALE (AvrBs3 scaffold in pMAL-c2X, repeats replaced; Xanthomonas?)). The series can be described thus: EMSA. Conditions: EMSA: 12 mM Tris, 60 mM KCl, 2 mM DTT, 0.1 mg/mL BSA, 30% glycerol, 5 mM MgCl2, 0.2 mM EDTA, RT 1 h then 4 °C 30 min, TALE 0.03-200 nM; GO assay: TALE storage ….
In series [2] the test system is TALE tetM_611 (16 bp recognition) (engineered TALE (AvrBs3 scaffold in pMAL-c2X, repeats replaced; Xanthomonas?)). The series can be described thus: EMSA. Conditions: EMSA: 12 mM Tris, 60 mM KCl, 2 mM DTT, 0.1 mg/mL BSA, 30% glycerol, 5 mM MgCl2, 0.2 mM EDTA, RT 1 h then 4 °C 30 min, TALE 0.03-200 nM; GO assay: TALE storage …. A general note: A gel shift assay detects complexes by their altered migration in electrophoresis.

The pKd is the negative decadic logarithm of the Kd, by convention in mol/L. A low value points to a high Kd. For the sequence “GCGCCTTTCTGGGCTTCGCG / TTTTTTTTTTTTTTTCGCGAAGCCCAGAAAGGCGC [tetM_1298 EMSA oligo]”, the negative logarithm of the Kd (pKd) in series [1] is 8.92.
Consider “GCGTGTTCTCTGTTCCCTCGCG / TTTTTTTTTTTTTTTCGCGAGGGAACAGAGAACACGC [tetM_611 EMSA oligo]”, for which the negative-log Kd (pKd) in series [2] was 8.34.
